In patent CN112375147A (THE THIRD AFFILIATED HOSPITAL NAVAL MEDICAL UNIV OF PLA, dated 2021):

Molecular target: T1, YKL-40 (native, secreted); in serum of patients with hepatocellular carcinoma lung metastasis and in culture … (human, UniProt P36222 22-383)
T1 construct: mature; Endogenous secreted protein, not a recombinant construct; also called Chi3l1; BRP39
Assay: ELISA of YKL-40 left detectable in patient serum (1:100) after overnight incubation at 4 C with 10 ug/mL antibody, IgG control

T1 sequence (P36222 22-383): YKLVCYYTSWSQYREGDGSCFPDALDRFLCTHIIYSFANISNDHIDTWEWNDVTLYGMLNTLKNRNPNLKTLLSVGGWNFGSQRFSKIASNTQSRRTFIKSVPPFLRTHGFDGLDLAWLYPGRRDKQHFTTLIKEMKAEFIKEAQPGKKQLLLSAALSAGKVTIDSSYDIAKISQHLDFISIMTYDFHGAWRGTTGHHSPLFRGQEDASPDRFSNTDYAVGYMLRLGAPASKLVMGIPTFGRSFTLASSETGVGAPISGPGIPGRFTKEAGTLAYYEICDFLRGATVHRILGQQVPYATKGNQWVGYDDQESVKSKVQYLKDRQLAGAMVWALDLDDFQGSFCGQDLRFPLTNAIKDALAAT

B1: 抗人YKL-40中和性单克隆抗体 (antibody, V domains shown)
VH: EVKLEESGGGLVQPGGSMKLSCAASGFTLSDAWMDWVRQSPEKGLEWVAEIRSKGNNHTPYYAESVKGRFTISRDDSRNSVYLQMNTLRAEDTGTYYCTRTVYYYGSSSCAMDYWGQGTSVTVSS
VL: DIQMTQSPASLSASVGETVTITCGASENIYGALNWYQRKQGKSPQLLIFGASNLADDMSSRFSGSGSGRQYSLKISSLHPDDVATYFCQNVLRTPWTFGGGTNLEIK
notes: Monoclonal antibody from mouse immunisation (hybridoma Hyb-NAY); also called N-AY; YKL-40中和性单抗
B1: binds.
